Series [1] deals with NGAL (Homo sapiens, UniProt P80188). Particulars: read-out: affinity of siderophore binding to NGAL (calyx); cited from earlier work.
Series [2] has as its system mouse model of ATN or ischemia/reperfusion injury. Put plainly: Mouse model of ATN (30 min clamp, contralateral nephrectomy): plasma creatinine. The format is in vivo, mice. Particulars: mice, 30 minutes of ischemia; 10 μg protein or single dose, 15 min prior to ischemia. As for the experimental part: Male C57BL/6 mice (20-25 gr; Charles River) were anesthetized with intraperitoneal pentobarbital (50 mg/kg) and placed on a heating pad under a warming light to maintain 37© core body temperature. Kidneys were exposed through an abdominal section and the right kidney was either removed or its vascular pedicle and ureter ligated. The vascular pedicle of the left kidney or both kidneys was clamped by a microaneurysm clip (Kent Scientific) for 30 minutes after right nephrectomy. This period of ischemia generated reproducible renal injury but minimized mortality. During the procedure, PBS (0.5 ml) was used to dampen the peritoneum. The animal was closed with 5-0 Nylon. Saline, NGAL, retinol-loaded retinol binding protein (RBP), enterochelin, or desferroxamine mesylate (DFO) were injected into the peritoneum or subcutaneously 15 min. prior to ischemia or 1-2 hr after reperfusion.
After 6 or 24 hr of reperfusion, heparinized plasma, urine and kidney samples were obtained to measure NGAL (polyclonal 1:500), Heme oxygenase-1 (Stressgen, 1:2000), E-cadherin (BD Transduction Labs, 1:2000), N-cadherin (BD Transduction Labs, 1:3000) and GAPDH (Chemicon International, 1:3000) using immunoblots. Plasma was also used for creatinine and blood urea nitrogen colorimetric assays. Sagittal sections of the kidney were fixed in 4% formalin, or were snap frozen for mRNA and protein analysis. Paraffin-embedded sections (5 μm) were stained with hematoxylin-eosin or by an in situ kit (Fluorescein-TUNEL, Roche) for apoptotic nuclei or for total nuclei (Toprol, Molecular Probes). For cell proliferation analysis, BrdU was injected into the peritoneum 1 hour before sacrifice, and cryostat sections were stained with anti-BrdU (Roche) according to the manufacturer.

Series [3] can be described thus: Distribution and radioautography of ^55Fe after ^55Fe:Sid:NGAL injection. The format is in vivo, mice. The conditions noted are these: non-protein bound ^55Fe citrate.
The nature of series [4]: NGAL trafficking after intraperitoneal or subcutaneous injection. The format is in vivo, mice. The source says: Recombinant human and mouse GST-NGAL were expressed in BL21 or XL1-Blue strains of E. coli (Stratagene) with additional ferric sulfate (50 Micro Molar, Sigma-Aldrich Co.). NGAL was isolated using Glutathione Sepharose 4B beads (Amersham Biosciences), eluted by thrombin cleavage (Sigma-Aldrich Co.; St. Louis, Mo.) and then further purified by gel filtration (Superdex75, SMART system, Amersham Biosciences) and examined by Coomassie gels (Biorad). BL-21 derived NGAL was loaded with iron free or iron saturated enterochelin, a siderophore (EMC Microcollections) using a 5 fold molar excess. Unbound siderophore (0.7 KD) was removed by washing (Microcon YM-10) with PBS. To produce ^55Fe or gallium (Ga) loaded NGAL we incubated the iron-free enterochelin NGAL complex with equimolar ^55Fe (18mCi) or Ga in NaCl (150 mM) Hepes (20 mM; pH 7.4) and the complex was washed 3 times (10K filter). Iodobeads (Pierce) were used to label NGAL with ^125I and unincorporated ^125I was removed by gel filtration (PD-10 column) followed by extensive dialysis (7 kDa cut off membrane, Pierce) against PBS. Alexa-568 and fluorescein isothiocyanate (Molecular Probes) was coupled to NGAL, according to the manufacturer, and then extensively dialyzed. Protein concentration was determined by Coomassie gels in comparison with bovine serum albumin standard.
To detect delivery of NGAL to the kidney rNGAL (10 or 100 μg), Alexa 568-NGAL (100 μg), ^125I-NGAL ([…], 2×10^6 cpm), or ^55Fe loaded enterochelin-NGAL (10 μg, 1×10^6 cpm) was injected into the peritoneum and blood, urine, kidney and liver samples were obtained. NGAL was detected by immunoblot. Alexa-568 NGAL was detected by confocal microscopy (LSM Meta Detector) and NGAL mediated iron trafficking was detected by scintillation counter and by light microscopic radioautography of Epon embedded kidneys. Slides were exposed to emulsion (Polyscience) for 1 week and then developed with Microdol and counterstained with Toluidine blue. To detect lysosomes in the proximal tubule, mice were injected with Fluorescein Dextran (46 kD; 0.5 mg; Sigma) 24 hours before Alexa 568 NGAL injections. LAMP1 (Santa Cruz) was detected in cryostat sections of 4% paraformaldehyde fixed kidneys.

The conditions of series [5]: previously reported; cited from earlier work.

Entries after “also recorded” stand apart in the source; their conditions may differ.

Take `O=C(N[C@H]1COC(=O)[C@@H](NC(=O)c2cccc(O)c2O)COC(=O)[C@@H](NC(=O)c2cccc(O)c2O)COC1=O)c1cccc(O)c1O` [Sid, enterochelin, reference compound]: the Kd in series [1] was 0.4 nM. Besides, the “protection against ATN (creatinine, FIG. 17A)” value in series [2] is “failed to protect against ATN; also recorded: ineffective”.
As for `O=C([O-])CC(O)(CC(=O)[O-])C(=O)[O-].[Fe+3]` [^55Fe citrate], the “iron recovered in the kidney” value in series [3] was found to be 1.5%.

B1: [^125I]-NGAL: NGAL labelled with ^125I using Iodobeads (protein, UniProt P11672 21-200, looked up)
Neutrophil …: QDSTQNLIPAPSLLTVPLQPDFRSDQFRGRWYVVGLAGNAVQKKTEGSFTMYSTIYELQENNSYNVTSILVRDQDQGCRYWIRTFVPSSRAGQFTLGNMHRYPQVQSYNVQVATTDYNQFAMVFFRKTSENKQYFKITLYGRTKELSPELKERFTRFAKSLGLKDDNIIFSVPTDQCIDN
modifications: 125I label
notes: NGAL labelled with ^125I using Iodobeads
With B1, the “TCA precipitable fraction, kidney-localized protein” value in series [4] (kidney) is 70%. In series [4] (one hour time-point), the “kidney versus liver content per mg protein” value is recorded as 13 fold. Also, the TCA precipitable fraction in series [4] (plasma) was 35%; in series [4] (urine), 20%.

B2: human NGAL: human NGAL of previously reported clearance data (protein, UniProt P80188 21-198, looked up)
Neutrophil …: QDSTSDLIPAPPLSKVPLQQNFQDNQFQGKWYVVGLAGNAILREDKDPQKMYATIYELKEDKSYNVTSVLFRKKKCDYWIRTFVPGCQPGEFTLGNIKSYPGLTSYLVRVVSTNYNQHAMVFFKKVSQNREYFKITLYGRTKELTSELKENFIRFSKSLGLPENHIVFPVPIDQCIDG
Turning to B2, in series [5], the “kidney versus liver level per mg protein” value is 12 fold and the “t1/2 of clearance from the circulation” value was 10 min.

The values above are taken from patent US8247376B2, “NGAL for reduction and amelioration of ischemic and nephrotoxic injuries” (The Trustees of Columbia University, priority 2004, dated 2012).
